From IntAct's records for PubMed 29892012

B1: Ubiquitin domain-containing protein 2 (Homo sapiens), Q8WUN7 (parent)
chain: MGGCVGAQHDSSGSLNENSEGTGVALGRNQPLKKEKPKWKSDYPMTDGQLRSKRDEFWDTAPAFEGRKEIWDALKAAAHAFESNDHELAQAIIDGANITLPHGALTECYDELGNRYQLPVYCLAPPINMIEEKSDIETLDIPEPPPNSGYECQLRLRLSTGKDLKLVVRSTDTVFHMKRRLHAAEGVEPGSQRWFFSGRPLTDKMKFEELKIPKDYVVQVIVSQPVQNPTPVEN
partner: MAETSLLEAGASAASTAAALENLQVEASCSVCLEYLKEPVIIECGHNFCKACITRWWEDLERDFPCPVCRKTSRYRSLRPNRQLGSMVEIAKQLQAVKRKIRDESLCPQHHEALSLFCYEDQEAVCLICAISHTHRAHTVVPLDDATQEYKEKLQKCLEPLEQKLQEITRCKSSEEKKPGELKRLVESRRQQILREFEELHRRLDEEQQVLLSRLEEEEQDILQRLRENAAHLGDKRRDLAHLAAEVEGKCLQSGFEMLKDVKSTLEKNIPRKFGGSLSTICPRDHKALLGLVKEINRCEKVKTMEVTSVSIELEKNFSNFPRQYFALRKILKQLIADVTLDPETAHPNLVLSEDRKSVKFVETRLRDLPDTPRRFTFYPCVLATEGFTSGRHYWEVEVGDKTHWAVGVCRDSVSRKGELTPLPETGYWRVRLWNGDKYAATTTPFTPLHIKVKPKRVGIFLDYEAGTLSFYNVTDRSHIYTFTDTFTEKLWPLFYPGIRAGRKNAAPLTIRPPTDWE
B2: Zinc finger protein ZXDC (Homo sapiens), Q2QGD7 (parent)
chain: MDLPALLPAPTARGGQHGGGPGPLRRAPAPLGASPARRRLLLVRGPEDGGPGARPGEASGPSPPPAEDDSDGDSFLVLLEVPHGGAAAEAAGSQEAEPGSRVNLASRPEQGPSGPAAPPGPGVAPAGAVTISSQDLLVRLDRGVLALSAPPGPATAGAAAPRRAPQASGPSTPGYRCPEPQCALAFAKKHQLKVHLLTHGGGQGRRPFKCPLEGCGWAFTTSYKLKRHLQSHDKLRPFGCPVGGCGKKFTTVYNLKAHMKGHEQESLFKCEVCAERFPTHAKLSSHQRSHFEPERPYKCDFPGCEKTFITVSALFSHNRAHFREQELFSCSFPGCSKQYDKACRLKIHLRSHTGERPFICDSDSCGWTFTSMSKLLRHRRKHDDDRRFTCPVEGCGKSFTRAEHLKGHSITHLGTKPFECPVEGCCARFSARSSLYIHSKKHVQDVGAPKSRCPVSTCNRLFTSKHSMKAHMVRQHSRRQDLLPQLEAPSSLTPSSELSSPGQSELTNMDLAALFSDTPANASGSAGGSDEALNSGILTIDVTSVSSSLGGNLPANNSSLGPMEPLVLVAHSDIPPSLDSPLVLGTAATVLQQGSFSVDDVQTVSAGALGCLVALPMKNLSDDPLALTSNSNLAAHITTPTSSSTPRENASVPELLAPIKVEPDSPSRPGAVGQQEGSHGLPQSTLPSPAEQHGAQDTELSAGTGNFYLESGGSARTDYRAIQLAKEKKQRGAGSNAGASQSTQRKIKEGKMSPPHFHASQNSWLCGSLVVPSGGRPGPAPAAGVQCGAQGVQVQLVQDDPSGEGVLPSARGPATFLPFLTVDLPVYVLQEVLPSSGGPAGPEATQFPGSTINLQDLQ
partner: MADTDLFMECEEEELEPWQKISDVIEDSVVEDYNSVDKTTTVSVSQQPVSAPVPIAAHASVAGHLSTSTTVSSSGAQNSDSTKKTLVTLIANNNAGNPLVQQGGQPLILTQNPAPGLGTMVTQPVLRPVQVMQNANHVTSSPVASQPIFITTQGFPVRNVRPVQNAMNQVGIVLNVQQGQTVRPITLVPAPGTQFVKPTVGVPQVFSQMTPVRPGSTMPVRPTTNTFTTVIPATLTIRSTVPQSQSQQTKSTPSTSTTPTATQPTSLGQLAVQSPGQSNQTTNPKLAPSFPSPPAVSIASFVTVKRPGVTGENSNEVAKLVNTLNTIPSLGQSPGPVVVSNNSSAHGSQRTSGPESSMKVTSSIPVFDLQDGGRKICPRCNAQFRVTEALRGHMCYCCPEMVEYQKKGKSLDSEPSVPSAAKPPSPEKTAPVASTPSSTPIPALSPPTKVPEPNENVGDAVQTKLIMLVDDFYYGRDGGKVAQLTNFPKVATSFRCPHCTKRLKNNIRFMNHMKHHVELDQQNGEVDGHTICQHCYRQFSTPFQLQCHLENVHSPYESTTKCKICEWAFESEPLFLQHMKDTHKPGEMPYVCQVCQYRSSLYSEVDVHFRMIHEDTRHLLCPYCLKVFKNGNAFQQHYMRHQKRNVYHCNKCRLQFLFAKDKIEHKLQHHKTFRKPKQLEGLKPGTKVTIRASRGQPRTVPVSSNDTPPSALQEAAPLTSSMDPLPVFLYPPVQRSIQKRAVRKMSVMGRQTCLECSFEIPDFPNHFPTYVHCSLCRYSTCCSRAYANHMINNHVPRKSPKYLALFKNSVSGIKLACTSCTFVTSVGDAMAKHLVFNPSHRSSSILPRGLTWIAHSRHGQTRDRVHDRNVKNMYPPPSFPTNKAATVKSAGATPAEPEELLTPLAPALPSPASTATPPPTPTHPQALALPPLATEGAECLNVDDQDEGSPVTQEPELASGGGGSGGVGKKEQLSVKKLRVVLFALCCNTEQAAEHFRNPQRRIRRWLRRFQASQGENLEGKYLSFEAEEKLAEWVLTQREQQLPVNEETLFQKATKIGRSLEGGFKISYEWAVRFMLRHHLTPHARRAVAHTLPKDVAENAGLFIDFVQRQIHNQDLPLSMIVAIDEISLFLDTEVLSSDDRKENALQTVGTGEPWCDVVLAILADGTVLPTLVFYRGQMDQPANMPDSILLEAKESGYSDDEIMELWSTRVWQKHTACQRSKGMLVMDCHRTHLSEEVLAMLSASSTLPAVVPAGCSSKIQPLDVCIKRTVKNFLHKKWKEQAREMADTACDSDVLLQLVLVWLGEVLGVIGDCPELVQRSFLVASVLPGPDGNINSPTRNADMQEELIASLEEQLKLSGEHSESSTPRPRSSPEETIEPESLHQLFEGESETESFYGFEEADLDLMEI
B3: E3 ubiquitin-protein ligase LNX (Homo sapiens), Q8TBB1 (parent)
chain: MNQPESANDPEPLCAVCGQAHSLEENHFYSYPEEVDDDLICHICLQALLDPLDTPCGHTYCTLCLTNFLVEKDFCPMDRKPLVLQHCKKSSILVNKLLNKLLVTCPFREHCTQVLQRCDLEHHFQTSCKGASHYGLTKDRKRRSQDGCPDGCASLTATAPSPEVSAAATISLMTDEPGLDNPAYVSSAEDGQPAISPVDSGRSNRTRARPFERSTIRSRSFKKINRALSVLRRTKSGSAVANHADQGRENSENTTAPEVFPRLYHLIPDGEITSIKINRVDPSESLSIRLVGGSETPLVHIIIQHIYRDGVIARDGRLLPGDIILKVNGMDISNVPHNYAVRLLRQPCQVLWLTVMREQKFRSRNNGQAPDAYRPRDDSFHVILNKSSPEEQLGIKLVRKVDEPGVFIFNVLDGGVAYRHGQLEENDRVLAINGHDLRYGSPESAAHLIQASERRVHLVVSRQVRQRSPDIFQEAGWNSNGSWSPGPGERSNTPKPLHPTITCHEKVVNIQKDPGESLGMTVAGGASHREWDLPIYVISVEPGGVISRDGRIKTGDILLNVDGVELTEVSRSEAVALLKRTSSSIVLKALEVKEYEPQEDCSSPAALDSNHNMAPPSDWSPSWVMWLELPRCLYNCKDIVLRRNTAGSLGFCIVGGYEEYNGNKPFFIKSIVEGTPAYNDGRIRCGDILLAVNGRSTSGMIHACLARLLKELKGRITLTIVSWPGTFL
partner: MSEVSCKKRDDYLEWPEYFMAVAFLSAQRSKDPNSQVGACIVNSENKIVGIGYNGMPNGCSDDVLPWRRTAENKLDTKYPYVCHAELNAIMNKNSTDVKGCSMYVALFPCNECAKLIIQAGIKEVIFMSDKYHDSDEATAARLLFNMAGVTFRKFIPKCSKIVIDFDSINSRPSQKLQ
B4: E3 ubiquitin-protein ligase LNX (Homo sapiens), Q8TBB1 (parent)
chain: B3 chain
partner: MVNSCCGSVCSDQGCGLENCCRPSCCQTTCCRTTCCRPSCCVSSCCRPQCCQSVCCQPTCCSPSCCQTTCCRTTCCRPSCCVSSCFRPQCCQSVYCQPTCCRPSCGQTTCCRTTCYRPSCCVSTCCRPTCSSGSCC
B5: E3 ubiquitin-protein ligase LNX (Homo sapiens), Q8TBB1 (parent)
chain: B3 chain
partner: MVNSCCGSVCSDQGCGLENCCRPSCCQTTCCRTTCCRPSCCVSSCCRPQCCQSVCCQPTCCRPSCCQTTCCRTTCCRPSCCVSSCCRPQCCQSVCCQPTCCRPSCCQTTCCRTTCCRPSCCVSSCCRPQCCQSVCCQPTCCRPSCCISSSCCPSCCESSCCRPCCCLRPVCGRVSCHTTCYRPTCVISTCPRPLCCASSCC

Variants of: B1
Details: with tri39_human TRIM39, Q9HCM9

| Variant | effect of a mutation on the interaction |
| --- | --- |
| R180W | with no effect |

Variants of: B2
Details: with pogz_human POGZ

| Variant | effect of a mutation on the interaction |
| --- | --- |
| T589M | with no effect |

Variants of: B3
Details: with dctd_human DCTD

| Variant | effect of a mutation on the interaction |
| --- | --- |
| E295K | disrupting interaction strength |

Variants of: B4
Details: with kra42_human KRTAP4-2, Q9BYR5

| Variant | effect of a mutation on the interaction |
| --- | --- |
| E295K | disrupting interaction strength |

Variants of: B5
Details: with kr412_human KRTAP4-12, Q9BQ66

| Variant | effect of a mutation on the interaction |
| --- | --- |
| E295K | disrupting interaction strength |
